The record followed here is the supplement of paper PMC9112550, “Optimization of the antimicrobial peptide Bac7 by deep mutational scanning” (BMC Biology, 2022).

The series has as its system Escherichia coli TOP10. As to the kind of experiment: shrunken log2 fold change of peptide-encoding DNA abundance (4.5 h post-induction vs induction); higher = less antimicrobial activity (less host growth inhibition). Particulars: time post-induction: 4.5 h; library: site-saturation at positions 5, 18, 19, 20.
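Also: peptides expressed intracellularly from a pBAD plasmid library in pooled LB shake-flask culture, induced with 0.3% L-arabinose, DNA abundance read by NGS, three biological replicates, DESeq2 with apeglm shrinkage.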

Consider RRIRWRPPRLPRPRPRPDVAPRP, for which the “shrunken log2 fold change” value came out at 1.3. Then RRIRRRPPRLPRPRPRPEGSPRP, with 0.223; and RRIRMRPPRLPRPRPRPMGQPRP, with 0.579. The value for RRIRVRPPRLPRPRPRPSRVPRP was 0.0356; that for RRIRHRPPRLPRPRPRPSILPRP was -0.464. The value for RRIRVRPPRLPRPRPRPGHQPRP was -0.0671; that for RRIRDRPPRLPRPRPRPTTYPRP was -0.0974.

With RRIRWRPPRLPRPRPRPMSEPRP, the “shrunken log2 fold change” value came to 0.0832. For the sequence RRIRKRPPRLPRPRPRPVINPRP, the “shrunken log2 fold change” value was -0.0513.

In the case of RRIRPRPPRLPRPRPRPEWEPRP, the “shrunken log2 fold change” value turned out to be 0.304. The value for RRIRKRPPRLPRPRPRPSRRPRP was 0.337; that for RRIRWRPPRLPRPRPRPQFAPRP was 0.189; that for RRIRPRPPRLPRPRPRPAAQPRP was 0.721. The value for RRIRRRPPRLPRPRPRPFRAPRP was 0.251; that for RRIRVRPPRLPRPRPRPLSRPRP was -0.132.

Consider RRIRHRPPRLPRPRPRPTCNPRP, for which the “shrunken log2 fold change” value was -0.411. The value for RRIRSRPPRLPRPRPRPSRMPRP was -0.205.

In the case of RRIRDRPPRLPRPRPRPTLHPRP, the “shrunken log2 fold change” value turned out to be 0.605.

For the sequence RRIRNRPPRLPRPRPRPQLFPRP, the “shrunken log2 fold change” value turned out to be 0.177. On to RRIRVRPPRLPRPRPRPQKIPRP, for which the “shrunken log2 fold change” value is 0.0538. Then RRIRSRPPRLPRPRPRPYGIPRP, with 0.104. Then RRIRMRPPRLPRPRPRPCNDPRP, with -0.165; and RRIRLRPPRLPRPRPRPTDTPRP, with -0.304. The value for RRIRCRPPRLPRPRPRPAVNPRP was -0.386. For the sequence RRIRYRPPRLPRPRPRPCSYPRP, the “shrunken log2 fold change” value was -0.0018. The value for RRIRRRPPRLPRPRPRPFYMPRP was -0.198.

As for RRIRCRPPRLPRPRPRPQLMPRP, the “shrunken log2 fold change” value is 0.285. Then RRIRARPPRLPRPRPRPHPPPRP, with 0.706; and RRIRVRPPRLPRPRPRPTDHPRP, with 0.00915; and RRIRARPPRLPRPRPRPHCYPRP, with 0.101. Then RRIRLRPPRLPRPRPRPPMWPRP, with 0.26; and RRIRQRPPRLPRPRPRPWNIPRP, with -0.0185; and RRIRMRPPRLPRPRPRPPQQPRP, with 0.945.

With RRIRWRPPRLPRPRPRPFGKPRP, the “shrunken log2 fold change” value is -0.578.

As for RRIRWRPPRLPRPRPRPICRPRP, the “shrunken log2 fold change” value was -0.0371. Then RRIRKRPPRLPRPRPRPLIGPRP, with 0.28; and RRIRKRPPRLPRPRPRPHRGPRP, with 0.0594. With RRIRIRPPRLPRPRPRPSFSPRP, the “shrunken log2 fold change” value is -0.357. RRIRWRPPRLPRPRPRPIVWPRP: the “shrunken log2 fold change” value is -0.0161. For RRIRWRPPRLPRPRPRPVFCPRP, the “shrunken log2 fold change” value came out at 0.119.

Turning to RRIRRRPPRLPRPRPRPAEIPRP, the “shrunken log2 fold change” value stood at 1.1. Then RRIRWRPPRLPRPRPRPTCPPRP, with 0.187.

On to RRIRRRPPRLPRPRPRPVFYPRP, for which the “shrunken log2 fold change” value was -0.0199. Then RRIRARPPRLPRPRPRPDRFPRP, with 0.414. Then RRIRTRPPRLPRPRPRPCDTPRP, with -0.116; and RRIRFRPPRLPRPRPRPCVIPRP, with 0.0397; and RRIRYRPPRLPRPRPRPNLGPRP, with -0.0146. Then RRIRPRPPRLPRPRPRPLYDPRP, with 2.73; and RRIRGRPPRLPRPRPRPTQHPRP, with 0.855; and RRIRARPPRLPRPRPRPHGKPRP, with 0.175. On to RRIRMRPPRLPRPRPRPKAMPRP, for which the “shrunken log2 fold change” value was determined as 0.705. The value for RRIRYRPPRLPRPRPRPLILPRP was -0.767. Then RRIRLRPPRLPRPRPRPSCPPRP, with -0.169. RRIRLRPPRLPRPRPRPMFHPRP: the “shrunken log2 fold change” value is -0.681. For RRIRHRPPRLPRPRPRPWHEPRP, the “shrunken log2 fold change” value is -0.0659. Consider RRIRDRPPRLPRPRPRPPVIPRP, for which the “shrunken log2 fold change” value is 0.0554. For RRIRPRPPRLPRPRPRPCWQPRP, the “shrunken log2 fold change” value is -0.021.

RRIRVRPPRLPRPRPRPMDQPRP: the “shrunken log2 fold change” value came out at 0.188.

For the sequence RRIRERPPRLPRPRPRPWNVPRP, the “shrunken log2 fold change” value was -0.0549. On to RRIRERPPRLPRPRPRPDVQPRP, for which the “shrunken log2 fold change” value was -0.0408. RRIRHRPPRLPRPRPRPHYDPRP: the “shrunken log2 fold change” value was -0.257. Then RRIRRRPPRLPRPRPRPAFEPRP, with 0.54; and RRIRDRPPRLPRPRPRPSLPPRP, with -0.00636. For RRIRARPPRLPRPRPRPHLLPRP, the “shrunken log2 fold change” value is -0.0598.

Regarding RRIRIRPPRLPRPRPRPVMHPRP, the “shrunken log2 fold change” value was found to be 0.152.

For RRIRIRPPRLPRPRPRPTAIPRP, the “shrunken log2 fold change” value is -0.574.

Regarding RRIRMRPPRLPRPRPRPEDNPRP, the “shrunken log2 fold change” value was 0.0325. The value for RRIRDRPPRLPRPRPRPCFVPRP was 0.0784. The value for RRIRFRPPRLPRPRPRPMWFPRP was -0.0145; that for RRIRARPPRLPRPRPRPGQSPRP was 0.266; that for RRIRYRPPRLPRPRPRPSRTPRP was -0.342. Then RRIRRRPPRLPRPRPRPRDLPRP, with 0.427; and RRIRWRPPRLPRPRPRPCYPPRP, with -0.466. As to RRIRARPPRLPRPRPRPWQMPRP, the “shrunken log2 fold change” value is -0.0506. The value for RRIRVRPPRLPRPRPRPDGRPRP was 0.149; that for RRIRIRPPRLPRPRPRPRRDPRP was -0.108. Regarding RRIRKRPPRLPRPRPRPSACPRP, the “shrunken log2 fold change” value is -0.0843. Then RRIRKRPPRLPRPRPRPPKQPRP, with 0.202; and RRIRVRPPRLPRPRPRPVLNPRP, with -0.2. Regarding RRIRIRPPRLPRPRPRPILFPRP, the “shrunken log2 fold change” value is -0.273. Then RRIRVRPPRLPRPRPRPVWCPRP, with 0.423; and RRIRSRPPRLPRPRPRPSTNPRP, with -0.546; and RRIRKRPPRLPRPRPRPEQMPRP, with -0.000598. The value for RRIRNRPPRLPRPRPRPMYEPRP was 0.0112; that for RRIRHRPPRLPRPRPRPWGLPRP was -0.00494; that for RRIRSRPPRLPRPRPRPQIAPRP was -0.102. The value for RRIRARPPRLPRPRPRPEAFPRP was 0.0217; that for RRIRIRPPRLPRPRPRPTAFPRP was -0.532. In the case of RRIRERPPRLPRPRPRPWFRPRP, the “shrunken log2 fold change” value is -0.214. The value for RRIRYRPPRLPRPRPRPQSFPRP was -0.0418; that for RRIRARPPRLPRPRPRPLHGPRP was 0.155; that for RRIRVRPPRLPRPRPRPALIPRP was 0.342.

Take RRIRLRPPRLPRPRPRPMKDPRP: the “shrunken log2 fold change” value is -0.111.

Regarding RRIRMRPPRLPRPRPRPKLMPRP, the “shrunken log2 fold change” value amounted to 0.718. Consider RRIRRRPPRLPRPRPRPGVIPRP, for which the “shrunken log2 fold change” value was -0.0223. The value for RRIRLRPPRLPRPRPRPMYYPRP was -0.0423. Then RRIRRRPPRLPRPRPRPFSEPRP, with -0.0505. Regarding RRIRQRPPRLPRPRPRPAIGPRP, the “shrunken log2 fold change” value was found to be 0.216.

For the sequence RRIRCRPPRLPRPRPRPHLPPRP, the “shrunken log2 fold change” value is -0.195. With RRIRDRPPRLPRPRPRPGDDPRP, the “shrunken log2 fold change” value came to 0.636.

For the sequence RRIRGRPPRLPRPRPRPDSEPRP, the “shrunken log2 fold change” value is 0.321. Turning to RRIRIRPPRLPRPRPRPPPNPRP, the “shrunken log2 fold change” value turned out to be 0.776.

Consider RRIRQRPPRLPRPRPRPDTCPRP, for which the “shrunken log2 fold change” value worked out at 0.0121. The value for RRIRERPPRLPRPRPRPERDPRP was -0.0208.

With RRIRCRPPRLPRPRPRPFRGPRP, the “shrunken log2 fold change” value was -0.151.

With RRIRLRPPRLPRPRPRPIMWPRP, the “shrunken log2 fold change” value was -0.0155. The value for RRIRIRPPRLPRPRPRPWVVPRP was -0.236; that for RRIRCRPPRLPRPRPRPQELPRP was -0.212; that for RRIRCRPPRLPRPRPRPRSMPRP was -0.0145. The value for RRIRDRPPRLPRPRPRPYMHPRP was -0.275. RRIRHRPPRLPRPRPRPVFKPRP: the “shrunken log2 fold change” value came out at 0.126. Then RRIRCRPPRLPRPRPRPYCCPRP, with -0.135. Then RRIRRRPPRLPRPRPRPQPVPRP, with 0.299. In the case of RRIRQRPPRLPRPRPRPTGDPRP, the “shrunken log2 fold change” value was determined as 0.349. The value for RRIRARPPRLPRPRPRPMIVPRP was -0.262.

With RRIRPRPPRLPRPRPRPHFVPRP, the “shrunken log2 fold change” value is -0.144. Then RRIRMRPPRLPRPRPRPYKPPRP, with 0.0559; and RRIRARPPRLPRPRPRPTKCPRP, with 0.141; and RRIRYRPPRLPRPRPRPKWSPRP, with -0.0252.

For the sequence RRIRKRPPRLPRPRPRPKHCPRP, the “shrunken log2 fold change” value is -0.222. Turning to RRIRVRPPRLPRPRPRPQFPPRP, the “shrunken log2 fold change” value was -0.28.

On to RRIRERPPRLPRPRPRPTQVPRP, for which the “shrunken log2 fold change” value is -0.0607.

On to RRIRDRPPRLPRPRPRPTMNPRP, for which the “shrunken log2 fold change” value is 0.116. Turning to RRIRCRPPRLPRPRPRPCAWPRP, the “shrunken log2 fold change” value was 0.0576.

Regarding RRIRVRPPRLPRPRPRPSNMPRP, the “shrunken log2 fold change” value was -0.124.
